Source: patent US20230069418A1 (XIAMEN INNODX BIOTECH, published 2023)

Molecular target: T1, polypeptide S29 (HBcAg-aa141-aa154) (hepatitis B virus)
T1 peptide: STLPETTVVRRRGR
Assay: indirect ELISA on coated peptide, antibody 1 ug/mL; positive if measured/background > 5

B1: 2A7 monoclonal antibody (antibody, V domains shown)
VH: QVQLQQPGAELVKPGASVKLSCKASGYTFTRYWMHWVMQRPGQDLEWIGEINPINGRTNYNEKFRRKATLTVDKSSSTVYIQFSSLTSEDSAVYFCTREGYRNDYYYAMDFWGRGTSVTVSS
VL: DIQMTQTSSSLSASPGDRVTISCRASQGINNYLNWYKQKTDGTFKLLIYYTSYLHSGVPSRFSGRGSGTDYSLTISNLEPEDVATYYCQQYGKLPWTFGGGTKLEIK
notes: also called HBc-2A7; 2A7-21
- binding result: binds
